In article PMC7503470 (Molecules, 2020):

Columns and labels:
in vivo = details: male, NOD-scid IL2Rg^null (NSG), mouse, iv, total radioactivity
Experimental: All imaging and biodistribution studies were performed using male NOD-scid IL2Rg^null (NSG) mice and conducted according to the guidelines established by the Canadian Council on Animal Care and approved by Animal Ethics Committee of the University of British Columbia. For tumor inoculations, mice were anesthetized by inhalation with 2% isoflurane in oxygen and implanted subcutaneously with 5 × 10^6 LNCaP cells below the left shoulder. Imaging and biodistribution studies were performed only after tumors grew to 5−8 mm in diameter over a period of 5−7 weeks.
For ex vivo biodistribution studies, mice were injected with ~1.5−3 MBq of the ^68Ga-labeled tracer. At 1 h p.i., mice were euthanized, blood was drawn from heart, and organs/tissues of interest were collected, rinsed with PBS, blotted dry, weighed, and counted using an automated gamma counter. The uptake in each organ/tissue was normalized to the injected dose and expressed as the percentage of the injected dose per gram of tissue (%ID/g).
Statistical analyses were performed by Student’s t-test using the Microsoft (Redmond, WA, USA) Excel software. The unpaired, two-tailed test was used to compare tissue uptake and tumor-to-background (muscle, blood and kidney) contrast ratios of [^68Ga]Ga-DOTA-AmBz-MVK(HTK01166)-OH and [^68Ga]Ga-DOTA-AmBz-M(O)VK(HTK01166)-OH. The unpaired, one-tailed test was used to compare kidney uptake of [^68Ga]Ga-DOTA-AmBz-MVK(HTK01166)-OH (or [^68Ga]Ga-DOTA-AmBz-M(O)VK(HTK01166)-OH) with that of the previously reported [^68Ga]Ga-HTK01166 [15]. The difference was considered statistically significant when the p value was <0.05.

mice = details: mouse, in vivo
Experimental: Radio-metabolites of [^68Ga]Ga-DOTA-AmBz-MVK(Ac)-OH and [^68Ga]Ga-DOTA-AmBz-MVK(HTK01166)-OH in mouse blood and urine samples were analyzed by HPLC. The blood samples were collected at 5 min p.i. due to the fast excretion nature of the small radio-metabolites, whereas the urine samples were collected at 15 min p.i. to allow sufficient time for the accumulation of enough radio-metabolites for analysis.
Male NSG mice were injected with 3–17 MBq of the ^68Ga-labeled peptide. For blood profiling, mice were anesthetized with 2% isoflurane in O2 and euthanized by CO2 inhalation at 5 min p.i. Blood draw was then performed by cardiac puncture and blood was collected in an eppendorf tube with equal volume of CH3CN. Each tube was then centrifuged at RT for 10–15 min and the resulting supernatant was collected and analyzed using the analytical HPLC column to identify and quantify radio-metabolite(s) in blood. For the purpose of urine profiling, urine was collected after euthanizing the mice at 15 min p.i. The urine samples were also collected and analyzed using the analytical HPLC column to identify and quantify radio-metabolite(s) in urine.

[1] = brush border membrane vesicles (BBMVs) extracted from mouse kidneys, control well with phosphoramidon; details: 37 °C, up to 1 h
[2] = brush border membrane vesicles (BBMVs) extracted from mouse kidneys; details: 37 °C, up to 1 h
[3] = mouse urine samples collected at 15 min p.i.; details: Male NSG mice, up to 15 min p.i.
[4] = mouse blood samples collected at 5 min p.i.; details: Male NSG mice, up to 5 min p.i.
[5] = brush border membrane vesicles (BBMVs) extracted from mouse kidneys, with phosphoramidon; details: 37 °C, up to 1 h

Compound | tissue uptake at 1 h (in vivo; Adrenal Glands uptake) [%ID/g] | tissue uptake at 1 h (in vivo; Bone uptake) [%ID/g] | tissue uptake at 1 h (in vivo; Brain uptake) [%ID/g] | tissue uptake at 1 h (in vivo; Fat uptake) [%ID/g] | tissue uptake at 1 h (in vivo; Heart uptake) [%ID/g] | tissue uptake at 1 h (in vivo; Intestines uptake) [%ID/g] | tissue uptake at 1 h (in vivo; Kidneys uptake) [%ID/g] | tissue uptake at 1 h (in vivo; LNCaP Tumor uptake) [%ID/g] | tissue uptake at 1 h (in vivo; Liver uptake) [%ID/g] | tissue uptake at 1 h (in vivo; Lungs uptake) [%ID/g] | tissue uptake at 1 h (in vivo; Muscle uptake) [%ID/g] | tissue uptake at 1 h (in vivo; Pancreas uptake) [%ID/g] | tissue uptake at 1 h (in vivo; Spleen uptake) [%ID/g] | tissue uptake at 1 h (in vivo; Stomach uptake) [%ID/g] | tissue uptake at 1 h (in vivo; Tail uptake) [%ID/g] | tissue uptake at 1 h (in vivo; Testes uptake) [%ID/g] | tissue to tissue ratio at 1 h (in vivo; Tumor/Blood uptake ratio) | tissue to tissue ratio at 1 h (in vivo; Tumor/Kidney uptake ratio) | tissue to tissue ratio at 1 h (in vivo; Tumor/Muscle uptake ratio) | cleaved bond [3] | further results
CC(C)[C@H](NC(=O)[C@H](CC[S+](C)[O-])NC(=O)c1ccc(CNC(=O)CN2CCN(CC(=O)O)CCN(CC(=O)O)CCN(CC(=O)O)CC2)cc1)C(=O)N[C@@H](CCCCNC(=O)CCc1cn(CC(=O)NC[C@H]2CC[C@H](C(=O)N[C@H](C(=O)NCCCC[C@H](NC(=O)N[C@@H](CCC(=O)O)C(=O)O)C(=O)O)C3Cc4ccccc4C3)CC2)nn1)C(=O)O (stereo partly shown) [[^68Ga]Ga-DOTA-AmBz-M(O)VK(HTK01166)-OH, metal not drawn] | 4.33 ± 2.07 | 0.11 ± 0.05 | 0.03 ± 0.01 | 0.52 ± 0.13 | 0.23 ± 0.05 | 0.29 ± 0.1 | 89.7 ± 19.3 | 4.06 ± 1.27 | 0.32 ± 0.06 | 0.88 ± 0.1 | 0.22 ± 0.05 | 0.56 ± 0.24 | 11.5 ± 2.7 | 0.13 ± 0.05 | 1.86 ± 2.44 | 0.31 ± 0.07 | 6.83 ± 2.81 | 0.04 ± 0.02 | 17.9 ± 7.57 |  | 
CSCC[C@H](NC(=O)c1ccc(CNC(=O)CN2CCN(CC(=O)O)CCN(CC(=O)O)CCN(CC(=O)O)CC2)cc1)C(=O)N[C@H](C(=O)N[C@@H](CCCCNC(=O)CCc1cn(CC(=O)NC[C@H]2CC[C@H](C(=O)N[C@H](C(=O)NCCCC[C@H](NC(=O)N[C@@H](CCC(=O)O)C(=O)O)C(=O)O)C3Cc4ccccc4C3)CC2)nn1)C(=O)O)C(C)C [[^68Ga]Ga-DOTA-AmBz-MVK(HTK01166)-OH, metal not drawn] | 5.59 ± 4.02 | 0.16 ± 0.04 | 0.02 | 0.72 ± 0.33 | 0.25 ± 0.12 | 0.4 ± 0.1 | 104 ± 12.2 | 3.98 ± 0.87 | 0.58 ± 0.08 | 0.96 ± 0.12 | 0.21 ± 0.05 | 0.6 ± 0.22 | 8.87 ± 2.63 | 0.11 ± 0.02 | 1.03 ± 0.82 | 0.36 ± 0.06 | 7.24 ± 1.16 | 0.04 ± 0.01 | 19.9 ± 5.41 |  | unidentified radio-metabolite in urine (mice): no presence
[^68Ga]Ga-DOTA-AmBz-M(O)VK(HTK01166)-OH |  |  |  |  |  |  |  |  |  |  |  |  |  |  |  |  |  |  |  |  | not cleaved [1]: 99.5% remaining intact after 1 h; not cleaved [2]: 94% remaining intact after 1 h
[^68Ga]Ga-DOTA-AmBz-MVK(Ac)-OH |  |  |  |  |  |  |  |  |  |  |  |  |  |  |  |  |  |  |  | Met-Val, major, 15 min p.i. | cleaved bond [1]: Met-Val, 1 h; cleaved bond [2]: Met-Val, major, 1 h; cleaved bond [4]: Met-Val, minor, 5 min p.i.
[^68Ga]Ga-DOTA-AmBz-MVK(HTK01166)-OH |  |  |  |  |  |  |  |  |  |  |  |  |  |  |  |  |  |  |  | Met-Val, 15 min p.i. | cleaved bond [2]: Met-Val, 1 h; not cleaved [5]: ~95% intact after 1 h; cleaved bond [4]: Met-Val, 5 min p.i.
